In article PMC6353796, “Thermostable Branched-Chain Amino Acid Transaminases From the Archaea Geoglobus acetivorans and Archaeoglobus fulgidus: Biochemical and Structural Characterization” (Frontiers in Bioengineering and Biotechnology, 2019):

What was measured:
[1] = substrate: CC(=O)C(=O)O; experiment: steady-state kinetics of overall transamination, Michaelis-Menten fit; assay type: biochemical, Geoglobus acetivorans; settings: 5 mM L-Leu co-substrate; extrapolated
Source text: steady-state kinetics of overall transamination, Michaelis-Menten fit on GEO1900 | For GEO1900 the extrapolated Vmax and Km values for pyruvate and AKG were […]

[2] = substrate: O=C(O)CCC(=O)C(=O)O; experiment: steady-state kinetics, GluDH-coupled discontinuous assay; assay type: biochemical, Geoglobus acetivorans; settings: 5 mM L-Leu co-substrate, 50 mM phosphate pH 8.0, 100 mM NaCl, 60 μM PLP, 65°C
Source text: steady-state kinetics, GluDH-coupled discontinuous assay on GEO1900 | For GEO1900 the extrapolated Vmax and Km values for pyruvate and AKG were […]

purified protein [3] = substrate: CC(C)C(=O)C(=O)O; experiment: purified protein; settings: 10 mM L-glutamate, 0.1 M Tris-HCl pH 8, 0.1 mM PLP, 70°C
purified protein [4] = substrate: CC(C)CC(=O)C(=O)O; experiment: purified protein; settings: 10 mM L-glutamate, 0.1 M Tris-HCl pH 8, 0.1 mM PLP, 70°C
purified protein [5] = substrate: CC[C@H](C)C(=O)C(=O)O; experiment: purified protein; settings: 10 mM L-glutamate, 0.1 M Tris-HCl pH 8, 0.1 mM PLP, 70°C

B1: GEO1900 (Geoglobus acetivorans) (protein)
chain: MSELLVYMNGEFVPESQAKVSVFDHGFLYGDGVFEGIRAYNGKVFKLYEHIDRLYDCARVIDLKIPLSKEEFAEAILETLRRNNLRDAYIRPIVTRGAGDLGLDPRKCPSPNVIIITKPWGKLYGDLYEKGLKAITVAIRRNAIDSLPPNIKSLNYLNNILAKIEANAKGGDEAIFLDHNGYISEGSGDNIFIVKNGTITTPPTLNNLKGITRQVVIELINELEIPFREANIGLFDLYSADEIFVTGTAAEIAPVTYIDGRTVGNGKPGKVTKMLMEKFRERTENEGVEIYR
notes: mainly homodimer in solution, hexamer in crystal; catalytic Lys152
Km [1]: 10600 ± 1900 µM | Km [2]: 1900 ± 600 µM

B2: AF0933 (Archaeoglobus fulgidus DSM 4304) (protein)
chain: MLYVYMDGEFVPENEAKVSIFDHGFLYGDGVFEGIRAYNGRVFRLKEHIDRLYDSAKAIDLEIPITKEEFMEIILETLRKNNLRDAYIRPIVTRGIGDLGLDPRKCQNPSIIVITKPWGKLYGDLYEKGLTAITVAVRRNSFDALPPNIKSLNYLNNILAKIEANAKGGDEAIFLDRNGYVSEGSGDNIFVVKNGAITTPPTINNLRGITREAVIEIINRLGIPFKETNIGLYDLYTADEVFVTGTAAEIAPIVVIDGRKIGDGKPGEITRKLMEEFSKLTESEGVPIYE
Km (purified protein [3]): 420 µM | Vmax (purified protein [3]): 6.3 µmol/min/mg | kcat/Km (purified protein [3]): 8850 M⁻¹ s⁻¹ | Km (purified protein [4]): 250 µM | Vmax (purified protein [4]): 5.5 µmol/min/mg | kcat/Km (purified protein [4]): 13000 M⁻¹ s⁻¹ | Km (purified protein [5]): 130 µM | Vmax (purified protein [5]): 3.9 µmol/min/mg | kcat/Km (purified protein [5]): 17700 M⁻¹ s⁻¹
